# B1: ALCALASE ®: ALCALASE® enzyme, commercially available from Novo, Swissprot accession number P00780 (protein, UniProt P00780 106-379, looked up)
# Subtilisin Carlsberg: AQTVPYGIPLIKADKVQAQGFKGANVKVAVLDTGIQASHPDLNVVGGASFVAGEAYNTDGNGHGTHVAGTVAALDNTTGVLGVAPSVSLYAVKVLNSSGSGSYSGIVSGIEWATTNGMDVINMSLGGASGSTAMKQAVDNAYAKGVVVVAAAGNSGSSGNTNTIGYPAKYDSVIAVGAVDSNSNRASFSSVGAELEVMAPGAGVYSTYPTNTYATLNGTSMASPHVAGAAALILSKHPNLSASQVRNRLSSTATYLGSSFYYGKGLINVEAAAQ
# B2: B. lentus subtilisin: Bacillus lentus subtilisin, industrial protease, Swissprot accession number P29600 (protein, UniProt P29600 1-269, looked up)
# Subtilisin Savinase: AQSVPWGISRVQAPAAHNRGLTGSGVKVAVLDTGISTHPDLNIRGGASFVPGEPSTQDGNGHGTHVAGTIAALNNSIGVLGVAPSAELYAVKVLGASGSGSVSSIAQGLEWAGNNGMHVANLSLGSPSPSATLEQAVNSATSRGVLVVAASGNSGAGSISYPARYANAMAVGATDQNNNRASFSQYGAGLDIVAPGVNVQSTYPGSTYASLNGTSMATPHVAGAAALVKQKNPSWSNVQIRNHLKNTATSLGSTNLYGSGLVNAEAATR
# B3: BPN′ Y217L: B. amyloliquifaciens subtilisin BPN′ Y217L, Swissprot accession number P00782 (protein, UniProt P00782 108-382, looked up, variant Y217L)
# Subtilisin BPN': AQSVPYGVSQIKAPALHSQGYTGSNVKVAVIDSGIDSSHPDLKVAGGASMVPSETNPFQDNNSHGTHVAGTVAALNNSIGVLGVAPSASLYAVKVLGADGSGQYSWIINGIEWAIANNMDVINMSLGGPSGSAALKAAVDKAVASGVVVVAAAGNEGTSGSSSTVGYPGKYPSVIAVGAVDSSNQRASFSSVGPELDVMAPGVSIQSTLPGNKYGALNGTSMASPHVAGAAALILSKHPNWTNTQVRSSLENTTTKLGDSFYYGKGLINVQAAAQ
# B4: Amylase: Bacillus licheniformis alpha amylase, industrial enzyme, Swissprot accession number P06278 (protein, UniProt P06278 30-512, looked up)
# Alpha-amylase: ANLNGTLMQYFEWYMPNDGQHWKRLQNDSAYLAEHGITAVWIPPAYKGTSQADVGYGAYDLYDLGEFHQKGTVRTKYGTKGELQSAIKSLHSRDINVYGDVVINHKGGADATEDVTAVEVDPADRNRVISGEHRIKAWTHFHFPGRGSTYSDFKWHWYHFDGTDWDESRKLNRIYKFQGKAWDWEVSNENGNYDYLMYADIDYDHPDVAAEIKRWGTWYANELQLDGFRLDAVKHIKFSFLRDWVNHVREKTGKEMFTVAEYWQNDLGALENYLNKTNFNHSVFDVPLHYQFHAASTQGGGYDMRKLLNSTVVSKHPLKAVTFVDNHDTQPGQSLESTVQTWFKPLAYAFILTRESGYPQVFYGDMYGTKGDSQREIPALKHKIEPILKARKQYAYGAQHDYFDHHDIVGWTREGDSSVANSGLAALITDGPGGAKRMYVGRQNAGETWHDITGNRSEPVVINSEGWGEFHVNGGSVSIYVQR
# B5: sTNFR1: soluble tumor necrosis factor receptor 1 (protein, UniProt P19438 30-211, looked up)
# extracellular domain: LVPHLGDREKRDSVCPQGKYIHPQNNSICCTKCHKGTYLYNDCPGPGQDTDCRECESGSFTASENHLRHCLSCSKCRKEMGQVEISSCTVDRDTVCGCRKNQYRHYWSENLFQCFNCSLCLNGTVHLSCQEKQNTVCTCHAGFFLRENECVSCSNCKKSLECTKLCLPQIENVKGTEDSGTT
# modifications: extracellular domain
# Tested on: CD4+ T-cells and dendritic cells
# Assay: I-MUNE assay: CD4+ T-cell proliferation to 15-mer peptide sets presented by dendritic cells
# Assay type: cell-based, human
# Design: Structure Value: scale not given here
# Conditions: Table 1
# Method: All peptides were obtained from a commercial source (Mimotopes, San Diego, C-A). For the I-MUNE® assay system described herein, 15-mer peptides offset by 3 amino acids that described the entire sequence of the proteins of interest were synthesized in a multipin format (See, Maeji et al., J. Immunol. Meth., 134:23-33 [1990]). Peptides were resuspended in DMSO at approximately 1 to 2 mg/ml, and stored at −70° C. prior to use. Each peptide was tested at least in duplicate, although for small peptide sets (e.g., Ber e 1), the peptides were routinely tested in triplicate.
# Volunteer donor human blood buffy coat samples were obtained from two commercial sources (Stanford Blood Center, Palo Alto, Calif., and the Sacramento Medical Foundation, Sacramento, Calif.). Buffy coat samples were further purified by density separation. Each sample was HLA typed for HLA-DR and HLA-DQ using a commercial PCR-based kit (Bio-Synthesis).
# Monocytes were purified by adherence to plastic in AIM V medium (Gibco/Life Technologies). Adherent cells were cultured in AIM V media containing 500 units/ml of recombinant human IL-4 (Endogen) and 800 units/ml recombinant human GM-CSF (Endogen) for 5 days. On day 5, recombinant human IL-1α (Endogen) and recombinant human TNF-α (Endogen) were added to 50 units/ml and 0.2 units/ml, respectively. On day 7, the fully matured dendritic cells were treated with 50 μg/ml mitomycin C (Sigma) for 1 hour at 37° C. Treated dendritic cells were dislodged with 50 mM EDTA in PBS, washed in AIM V medium, counted, and resuspended in AIM V media at 2×10^5 cells/ml.
# CD4^+ T-cells were purified by negative selection from frozen aliquots of human peripheral blood mononuclear cells (PBMC) using Cellect CD4 columns (Cedarlane). […] CD4^+ T-cells were resuspended in AIM V media at 2×10^6 cells per ml.
# CD4^+ T-cells and dendritic cells were plated in round-bottomed 96 well format plates at 100 μl of each cell mix per well. Peptide was added to a final concentration of approximately 5 ug/ml in 0.25-0.5% DMSO. Control wells contained 0.5% DMSO without added peptide. Each peptide was tested in duplicate. Cultures were incubated at 37° C., in 5% CO2 for 5 days. On day 5, 0.5 uCi of tritiated thymidine (NEN DuPont) was added to each well. On day 6, the cultures were harvested onto glass fiber mats using a TomTec manual harvester (TomTec), then processed for scintillation counting. Proliferation was assessed by determining the average counts per minute (CPM) value for each set of duplicate wells (TriLux Beta). This method is also described in U.S. Pat. No. 6,218,165 and Stickler et al., J. Immunother. 23: 654-660 (2000), both of which are herein incorporated by reference.
# For each individual buffy coat sample, the average CPM values obtained in the I-MUNE® assay for all of the peptides were analyzed. The average CPM values for each peptide were divided by the average CPM value for the control (DMSO only) wells to determine the “stimulation index” (SI). Donors were tested with each peptide set until an average of at least two responses per peptide were compiled. The data for each protein was graphed showing the percent responders to each peptide within the set. A positive response was collated if the SI value was equal to or greater than 2.95. This value was chosen as it approximates a difference of three standard deviations in a normal population distribution. For each protein assessed, positive responses to individual peptides by individual donors were compiled. To determine the background response for a given protein, the percent responders for each peptide in the set were averaged and a standard deviation was calculated. SI values for each donor were compiled for each peptide set, and the percent of responders reported.
row,Molecule,Number of epitope regions
1,B1,1
2,B2,1
3,B3,2
4,B4,3

# Same assay, conditions: Table 1; from compiled responses
row,Molecule,Structure Value
1,B1,0.72
2,B2,0.64
3,B3,0.53
4,B4,0.81

# Same assay, conditions: Table 1; positive response SI of 2.95 or greater; community donors
row,Molecule,Responses per peptide
1,B1,2.16
2,B2,2.24
3,B3,3.65
4,B4,2.29

# Same assay, conditions: Table 3
row,Molecule,Background % [%]
1,B5,4.2
2,B1,2.35
3,B2,3.45
4,B3,3.65
5,B4,2.79

# Same assay, conditions: Table 3; SI>2.95
row,Molecule,Response/Peptide
1,B5,2.9
2,B1,2.16
3,B2,2.24
4,B3,3.61
5,B4,2.29

# Same assay, conditions: Table 3; Stanford and Sacramento donors
row,Molecule,Structure Value
1,B5,0.47
2,B1,0.72
3,B2,0.65
4,B3,0.65
5,B4,0.81

# Same assay, conditions: Table 4; number of prominent epitopes
row,Molecule,Prominent Epitope
1,B3,2

# Same assay, conditions: Table 4; parent, dataset of 113 individuals
row,Molecule,Structure Value
1,B3,0.53

# Same assay, conditions: Table 5; background response value
row,Molecule,Background +/− sd
1,B5,2.23 +/− 1.95

# Same assay, conditions: Table 5; determined experimentally
row,Molecule,Responses/peptide found
1,B5,1.54

# Same assay, conditions: Table 21; parent, I-MUNE assay data
row,Molecule,SIV (structure index value)
1,B3,0.53

# Same assay, conditions: average percent responders per peptide, +/− sd where given
row,Molecule,background response
1,B1,2.35%
2,B2,3.45+/−2.90%
3,B3,3.62%
4,B4,2.80+/−3.69%

# Same assay, conditions: compiled responses
row,Molecule,Structure Value
1,B1,0.72
2,B2,0.64
3,B3,0.53
4,B4,0.81

# Same assay, conditions: peptide regions of the protein
row,Molecule,Prominent responses noted at amino acids
1,B1,19-33
2,B2,160-174

# Source: patent US20080220450A1, “Population Based Prediction Methods for Immune Response Determinations and Methods for Verifying Immunological Response Data” (Danisco US, Inc., Genencor Division, priority 2004, published 2008)
